Assay [1] addresses T1, BM-4831-CoV receptor-binding domain (RBD) (Bat coronavirus BM48-31/BGR/2008). In words: ELISA. In general terms: ELISA stands for enzyme-linked immunosorbent assay.
Assay [2] concerns the target SHC014-CoV receptor-binding domain (RBD) (Bat SARS-like coronavirus RsSHC014, UniProt U5WLK5). Put plainly: ELISA.
Assay [3] concerns the target W1V1-CoV receptor-binding domain (RBD) (Bat SARS-like coronavirus WIV1, UniProt U5WI05). Put plainly: ELISA.
Assay [4] has as its target RaTG13-CoV receptor-binding domain (RBD) (Bat coronavirus RaTG13, UniProt A0ABF7PLN6). In words: ELISA.
Assay [5] deals with Rs4081-CoV receptor-binding domain (RBD) (Bat SARS-like coronavirus Rs4081, UniProt A0A2D1PX44). In words: ELISA.
The target in assay [6] is Shaanxi2011-CoV receptor-binding domain (RBD) (Bat coronavirus Rp/Shaanxi2011, UniProt R9QTA0). Put plainly: ELISA.
The target in assay [7] is BtkY72-CoV receptor-binding domain (RBD) (Bat coronavirus BtKY72, UniProt A0A3Q8AKM0). Put plainly: ELISA.
Assay [8] addresses Rf1-CoV receptor-binding domain (RBD) (Bat SARS CoV Rf1/2004, UniProt Q0QDZ0). Put plainly: ELISA.
Assay [9] concerns the target ZC45-CoV receptor-binding domain (RBD) (Bat SARS-like coronavirus ZC45, UniProt A0A2R3SUW7). Put plainly: ELISA.
For assay [10], the target named is HKU3-1-CoV receptor-binding domain (RBD) (Bat coronavirus HKU3-1, UniProt Q3LZX1). Put plainly: ELISA.
In assay [11] the target is Rs7327-CoV receptor-binding domain (RBD) (Bat SARS-like coronavirus Rs7327, UniProt A0A2D1PXC0). Put plainly: ELISA.
The target of assay [12] is Rs4092-CoV receptor-binding domain (RBD) (Bat SARS-like coronavirus Rs4092, UniProt A0A2D1PX37). Put plainly: ELISA.
Assay [13] concerns the target Rp3-CoV receptor-binding domain (RBD) (Bat SARS-like coronavirus Rp3/2004, UniProt Q3I5J5). In words: ELISA.
For assay [14], the target named is Yun11-CoV receptor-binding domain (RBD) (Bat coronavirus Cp/Yunnan2011, UniProt R9QTH3). In words: ELISA.
The target of assay [15] is pangolin17-CoV receptor-binding domain (RBD) (Pangolin coronavirus (pangolin17, …)). Put plainly: ELISA.
Assay [16] has as its target YN2013-CoV receptor-binding domain (RBD) (BtRs-BetaCoV/YN2013, UniProt A0A0U1WJY8). In words: ELISA.
Assay [17] addresses T1, BM-4831-CoV receptor-binding domain …. Put plainly: SPR.
In assay [18] the target is T2, SARS-CoV receptor-binding domain (RBD) (SARS-CoV (AAP13441.1), UniProt P59594). Put plainly: SPR.
The target in assay [19] is T2, SARS-CoV receptor-binding domain (RBD).
Assay [20] deals with SARS-CoV-2 receptor-binding domain (RBD) (SARS-CoV-2 (MN985325.1), UniProt P0DTC2).

The term Kd denotes the equilibrium constant for the complex coming apart. A higher Kd goes with weaker binding.

B1: psNb 2-65 (VHH)
VHH: HVQLVESGGGLVQAGGSLRLSCAASGTISTLNAMGWYRQAPGKQRELLASISNLGTTYHADSVAGRFTISRGSAKNTVNLQMNSLKPDDTAVYYCNTRVLEGGTQIRDYWGQGTQVTVSS
Take B1: the binding result in [1] is “binds”.

B2: psNb 2-31 (VHH)
VHH: QVQLVESGGGLVQAGESLRLSCAASKPTFRNFAAGWFRQTPGKDREFVAVIEYDGDSAYYADSVKGRFTISRDNAKNTVYLQMNRLKPGDTAVYICAIGGNHYDPSKYYTADEYDYWGQGTQVTVSS
For B2, the binding result in assay [2], in assay [3], in [4], in [5], in assay [6] and in assay [7] was “binds” in each case. Further, the binding result in assay [8], in assay [9], in assay [10], in assay [11], in assay [12] and in assay [13] was “binds” each time. The binding result in [14], in assay [15] and in [16] was “binds” in each case. Further, the equilibrium dissociation constant (Kd) in assay [17] was determined as 3.6 nM; in assay [18], 0.00396 nM.

B3: psNb 1-22 (VHH)
VHH: HVQLVESGGGLVQPGGSLRLSCAASGRSFNSYLMGWFRQAPGKEREFVAWISGSPHDIIRYRDSVKDRFTISRDNAKNTVYLQMNSLKPVDTAVYYCAVGSLRVGSFSPDYWGQGTQVTVSS
On to B3, for which the binding result in assay [1] is on record as “binds”.

B4: 1-28 (VHH)
VHH: QVQLVESGGGLVQAGGSLRLSCAVSGRTVSTYGMAWFRQTPGKKRDFVATITRSEGTTFYADSVKGRFTISRDNAKNTVYLQMNSLKIEDTAVYYCAVRRDSSWGYSRDLFEYDDWGQGTQVTVSS
As to B4, the binding result in assay [19] and in [20] was “binds” in each case.

B5: psNb 2-45 (VHH)
VHH: QVQLVESGGGLVQAGGSLRLSCTASGYDFSILAIAWYRQAPGKERELVAAISRVGSTDYADSVKGRFTISRDNTKNTVSLQMDSLKPEDTAVYYCNAGIPMTTVLSGLGFWGQGTQVTVSS
As for B5, the binding result in [2], in [3], in [4], in [5], in [6] and in [7] was “binds” each time. Moreover, the binding result in assay [8], in [9], in assay [10], in assay [11], in [12] and in assay [13] was “binds” each time. Also, the binding result in assay [14], in assay [15] and in assay [16] was “binds” in each case. For the same molecule, the Kd in assay [17] worked out at 0.044 nM; in assay [18], 304 nM.

B6: psNb 1-23 (VHH)
VHH: QVQLVESGGGLVQAGGSLRLSCAASGRTDSISDMGWFRQAPGKEREFVAVVGWSGGGTDYAHSVKGRFTISRDNAKNTVYLQMNSLKPEDTAVYYCAVGSLRVGSFSVEYWGQGTQVTVSS
B6: the binding result in [1] is recorded as “binds”.

B7: psNb 2-34 (VHH)
VHH: HVQLVESGGGLVQAGGSLRLSCAASGRTFSRYAAGWFRQAPGKEREFVAVIEWDGDSAYYADPVKGRFTISRDNAKNTVYLQMNRLKPEDTAVYICAVGGNHYSRSKYYNLDEYDDWGQGTQVTVSS
B7: the binding result in assay [2], in [1], in [3], in assay [4], in assay [5] and in [6] was “binds” throughout. Further, the binding result in assay [7], in assay [8], in assay [9], in assay [10], in assay [11] and in [12] was “binds” throughout. Moreover, the binding result in assay [13], in [14], in assay [15] and in [16] was “binds” in each case.

B8: psNb 2-38 (VHH)
VHH: QVQLVESGGGLVQAGGSLRLSCAAAARFSTSAMGWFRQAPGKEREFVAAISWSNTNTHYADTVKGRFTISADTAKETVDLQMNSLKPEDTAVYYCVQGGWGIRQPIIVDYWGKGTQVTVSS
For the molecule B8, in assay [1], the binding result is on record as “binds”.

The record behind these values is PMC9174178 (Cell Reports, 2022).
